Target: human CLDN18.1 (human) (UniProt P56856)
Test: flow cytometry on human CLDN18.1-HEK293 cells, antibody at 100 µg/mL

Sequence of human CLDN18.1 (human) (P56856 whole entry): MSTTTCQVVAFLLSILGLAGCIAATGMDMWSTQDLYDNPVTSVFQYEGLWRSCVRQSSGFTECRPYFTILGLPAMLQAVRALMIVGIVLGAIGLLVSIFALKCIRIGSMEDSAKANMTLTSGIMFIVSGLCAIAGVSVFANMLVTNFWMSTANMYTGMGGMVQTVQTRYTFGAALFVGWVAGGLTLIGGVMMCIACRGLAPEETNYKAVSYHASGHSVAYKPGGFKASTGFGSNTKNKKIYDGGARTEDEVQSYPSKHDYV

positive rate of cell binding: 5.5%
B1: humanized antibody NA7-S-H2 (Fc fusion, not shown: a dimerising Fc or GST)
chain: EVQLVESGGGLVQPGGSLRLSCAASGSFFRIVAMGWYRQAPGKGRELVATITRGGSTYYADSMKGRSTISRDNAKNTVYLQMNSLKPEDTAVYYCNVRVEVPFMQPNDYWGQGTLVTVSS
